The results in this text go back to US5882914, “Nucleic acids encoding the hypoxia inducible factor-1” (The Johns Hopkins University School of Medicine).

The target of series [1] is T1, HIF-1 (HIF-1alpha/HIF-1beta ARNT heterodimer) (Homo sapiens, UniProt Q16665;P27540 Q16665:1-826,P27540:2-789). As to the kind of experiment: EMSA; buffer Z-100; also UV cross-linking of both subunits, competed by W18 not M18. To be noted: tags: none; 5' GATC overhang. As for the experimental part: (§1) Figure 3A: FIG. 3A is an autoradiograph showing gel shift assay analysis of column fractions for HIF-1 DNA binding activity. Nuclear extracts were fractionated by DEAE-Sepharose chromatography, and fractions containing HIF-1 activity were applied to a W18 DNA affinity column. 5 ug of protein were incubated with 0.1 ug of calf thymus DNA for gel shift analysis of crude nuclear extract (Crude NE, lane 1) and HIF-1 active fractions from DEAE-Sepharose columns (DEAE, lane 2). For fractions from the W18 column (lanes 3–13), 1 ul aliquots were incubated with 5 ng of calf thymus DNA. The positions of the two HIF-1 bands, constitutive activity (C), nonspecific activity (NS), and free probe (F) are indicated. FT, flowthrough, 0.25M, 0.5M, 1M, and 2M are fractions eluted with indicated concentration of KCl in buffer Z. Figure 3B: FIG. 3B is an autoradiograph showing sequence-specific DNA binding of the partially purified fractions described in the legend to FIG. 3A. 5 ug aliquots of fractions from the DEAE-Sepharose column were incubated with W18 probe in the presence of no competitor (lane 1), 10-fold (lanes 2 and 5), 50-fold (lanes 3 and 6), or 250-fold (lanes 4 and 7) molar excess of unlabeled W18 (W, lanes 2–4) or M18 (M, lanes 5–7) oligonucleotide.
T1 sequence (Q16665 whole entry, chain 1 of 2): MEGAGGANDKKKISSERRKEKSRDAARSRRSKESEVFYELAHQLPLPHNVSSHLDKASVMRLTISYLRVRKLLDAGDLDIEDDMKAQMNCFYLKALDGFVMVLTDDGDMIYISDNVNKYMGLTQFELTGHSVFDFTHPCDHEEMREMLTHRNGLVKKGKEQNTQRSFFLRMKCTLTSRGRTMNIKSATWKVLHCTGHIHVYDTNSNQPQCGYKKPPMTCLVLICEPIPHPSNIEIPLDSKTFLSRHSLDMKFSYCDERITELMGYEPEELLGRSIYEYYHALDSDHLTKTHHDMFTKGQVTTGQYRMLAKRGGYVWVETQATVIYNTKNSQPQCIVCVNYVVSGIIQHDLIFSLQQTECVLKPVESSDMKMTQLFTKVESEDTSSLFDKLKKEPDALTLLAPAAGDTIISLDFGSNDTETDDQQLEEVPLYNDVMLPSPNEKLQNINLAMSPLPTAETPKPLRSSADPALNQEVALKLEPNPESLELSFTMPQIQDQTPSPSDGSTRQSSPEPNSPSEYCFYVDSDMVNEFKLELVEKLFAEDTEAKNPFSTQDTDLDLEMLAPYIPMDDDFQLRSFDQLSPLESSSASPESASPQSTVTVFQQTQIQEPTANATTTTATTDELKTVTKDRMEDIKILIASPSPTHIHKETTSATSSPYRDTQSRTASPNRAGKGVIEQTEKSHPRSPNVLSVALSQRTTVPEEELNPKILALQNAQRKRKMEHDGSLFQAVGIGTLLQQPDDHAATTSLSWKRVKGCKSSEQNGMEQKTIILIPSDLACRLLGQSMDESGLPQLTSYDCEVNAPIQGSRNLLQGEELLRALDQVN
T1 sequence (P27540 2-789, chain 2 of 2): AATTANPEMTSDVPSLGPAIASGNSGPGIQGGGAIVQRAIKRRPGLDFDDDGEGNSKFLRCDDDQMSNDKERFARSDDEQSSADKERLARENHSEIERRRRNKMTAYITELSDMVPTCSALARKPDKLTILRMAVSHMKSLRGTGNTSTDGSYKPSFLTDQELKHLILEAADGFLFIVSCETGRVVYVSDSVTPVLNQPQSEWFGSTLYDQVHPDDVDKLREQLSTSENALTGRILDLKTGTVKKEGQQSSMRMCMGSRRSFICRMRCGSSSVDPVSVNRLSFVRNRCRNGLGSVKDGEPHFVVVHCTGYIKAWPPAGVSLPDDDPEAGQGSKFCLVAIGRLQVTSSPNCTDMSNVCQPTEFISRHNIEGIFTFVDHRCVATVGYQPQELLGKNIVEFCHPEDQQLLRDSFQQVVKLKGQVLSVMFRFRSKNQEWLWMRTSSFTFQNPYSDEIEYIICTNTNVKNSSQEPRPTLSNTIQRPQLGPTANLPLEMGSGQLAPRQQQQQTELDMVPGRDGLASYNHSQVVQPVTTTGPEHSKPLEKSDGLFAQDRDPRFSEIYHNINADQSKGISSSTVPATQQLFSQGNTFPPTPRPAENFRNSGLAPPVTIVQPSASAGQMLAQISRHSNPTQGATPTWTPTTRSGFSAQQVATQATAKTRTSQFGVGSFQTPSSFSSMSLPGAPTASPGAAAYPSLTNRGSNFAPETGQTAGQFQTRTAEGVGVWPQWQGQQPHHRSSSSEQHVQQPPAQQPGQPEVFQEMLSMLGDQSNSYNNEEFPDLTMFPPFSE
UV Cross-Linking Analysis. […]

The target of series [2] is T1, HIF-1 (HIF-1alpha/HIF-1beta ARNT …). As to the kind of experiment: EMSA; listed among 8 oligonucleotides shown to bind HIF-1 specifically. To be noted: tags: none; 5' GATC overhang added. An excerpt: (§2) Double-stranded oligonucleotides were synthesized according to the sequences shown in Table 2 except that each oligonucleotide contained at its 5'-end the sequence 5'-GATC-3', which formed a single-stranded 5' overhang when complementary oligonucleotides were annealed. The sense strand sequence of the W18 and M18 oligonucleotides was as given above. HIF-1 was partially purified from 50 liters of CoCl_2-treated HeLa cells by crude nuclear extract preparation, DEAE-Sepharose chromatography, MonoQ fast protein liquid chromatography, and DNA affinity chromatography. Incubations with crude nuclear extracts and partially purified HIF-I contained 100 and 1 ng of denatured calf thymus DNA, respectively. Competition experiments were performed with 5 ng of unlabeled W18 or MI8 oligonucleotide.
(§3) EMSA was also performed with a preparation of HIF-1 from CoCl_2-treated HeLa cells that was purified approximately 600-fold by DEAE-cellulose, MonoQ, and DNA affinity chromatography. Each probe bound HIF-1 in a manner that was qualitatively and quantitatively similar to the complex formed with W18. The binding of HIF-1 to these probes was sequence-specific as it could be competed by an excess of unlabeled W18 but not by mutant oligonucleotide M18, containing a 3-nucleotide substitution previously shown to eliminate HIF-1 binding and hypoxia-inducible enhancer function. […]

Series [3] shares this target. As to the kind of experiment: competition; 250-fold excess M18 does not compete; HIF-1 in M18 column flowthrough. To be noted: tags: none; 5' GATC overhang. As for the experimental part: as §1
Series [4] shares this target. The series can be described thus: EMSA; similar to W18; competed by W18 not M18. As to conditions: tags: none; 5' GATC overhang added. On the procedure: The sense strand sequence of the W18 and M18 oligonucleotides was as given above. HIF-1 was partially purified from 50 liters of CoCl_2-treated HeLa cells by crude nuclear extract preparation, DEAE-Sepharose chromatography, MonoQ fast protein liquid chromatography, and DNA affinity chromatography. Incubations with crude nuclear extracts and partially purified HIF-I contained 100 and 1 ng of denatured calf thymus DNA, respectively. Competition experiments were performed with 5 ng of unlabeled W18 or MI8 oligonucleotide.
EMSA was also performed with a preparation of HIF-1 from CoCl_2-treated HeLa cells that was purified approximately 600-fold by DEAE-cellulose, MonoQ, and DNA affinity chromatography. Each probe bound HIF-1 in a manner that was qualitatively and quantitatively similar to the complex formed with W18. The binding of HIF-1 to these probes was sequence-specific as it could be competed by an excess of unlabeled W18 but not by mutant oligonucleotide M18, containing a 3-nucleotide substitution previously shown to eliminate HIF-1 binding and hypoxia-inducible enhancer function. Similar results were obtained when competition experiments involving W18 and M18 were performed with crude nuclear extract from hypoxic Hep3B cells. […] Given the biased method of ascertainment, it is possible that HIF-1 may recognize other sequences not represented by this consensus. In addition to the 6 HIF-1 sites from glycolytic genes, the sequence 5'-CACGTGCT-3' (SEQ ID NO:34) was also present in the hENO1 5'-FS at -786 to -793 (Gialongo et al. (1990) Eur. J. Biochem. 190:567–573) but was not tested for HIF-1 binding. Thus, a total of 7 probable HIF-1 sites were identified in 20.7 kb of nucleotide sequence reported to GenBank for these 5 glycolytic genes. In contrast, no sequences matching the consensus HIF-1 site were identified on either DNA strand within a total of 43.5 kb, comprising the nucleotide sequences of 5 randomly chosen genes, AFP, BUP4, CREB, DHFR, and EPOR (Gibbs et al. (1987) Biochemistry 26;1332–1343; Kurihara et al. (1993) Biochem.
A general note: Mobility shift assays separate free from complexed probe on a gel.

Series [5] shares this target. As to the kind of experiment: EMSA; similar to W18; competed by W18 not M18; printed CADGTGCG in table. To be noted: tags: none; 5' GATC overhang added.
From the text: as §2, §3

B1: W18 (dsDNA)
DNA 1: GATCGCCCTACGTGCTGTCTCA
DNA 2: TGAGACAGCACGTAGGGCGATC
Turning to B1, the binding result in series [1] is “binds”.

B2: hEPO 3'-FS (dsDNA)
DNA 1: GCCCTACGTGCTGTCTCACACAGCCTGTCTGA
DNA 2: TCAGACAGGCTGTGTGAGACAGCACGTAGGGC
Turning to B2, in series [2], the binding result is on record as “binds”.

B3: M18 (dsDNA)
DNA 1: GATCGCCCTAAAAGCTGTCTCA
DNA 2: TGAGACAGCTTTTAGGGCGATC
On to B3, for which the binding result in series [3] is “no binding”.

B4: mLDHA 5'-FS (dsDNA)
DNA 1: GTGGGAGCCCAGCGGACGTGCGGGAA
DNA 2: TTCCCGCACGTCCGCTGGGCTCCCAC
As for B4, the binding result in series [4] is on record as “binds”.

B5: hEPO 5'-FS (dsDNA)
DNA 1: GGGGCTGCTGCAGACGTGCGTGTG
DNA 2: CACACGCACGTCTGCAGCAGCCCC
For the molecule B5, in series [4], the binding result is recorded as “binds”.

B6: hALDA IVS-4 (dsDNA)
DNA 1: CTTCACGTGCGGGGACCAGGGACCGT
DNA 2: ACGGTCCCTGGTCCCCGCACGTGAAG
With B6, in series [4], the binding result is recorded as “binds”.

B7: hENO1 5'-FS (dsDNA)
DNA 1: GGCCACGTGCGCCGCCTGCGCCTGCG
DNA 2: CGCAGGCGCAGGCGGCGCACGTGGCC
As to B7, the binding result in series [5] is listed as “binds”.

B8: hPGK1 5'-UT (dsDNA)
DNA 1: CTGCCGACGTGCGCTCCGGAG
DNA 2: CTCCGGAGCGCACGTCGGCAG
Turning to B8, the binding result in series [4] is given as “binds”.

B9: hPGK1 5'-FS (dsDNA)
DNA 1: GTGAGACGTGCGGCTTCCGTTTG
DNA 2: CAAACGGAAGCCGCACGTCTCAC
With B9, the binding result in series [4] is “binds”.

B10: mPFKL IVS-1 (dsDNA)
DNA 1: CCGGGTAGCTGGCGTACGTGCTGCAG
DNA 2: CTGCAGCACGTACGCCAGCTACCCGG
Take B10: the binding result in series [4] is recorded as “binds”.
